According to patent US20110059504A1 (GENERAL HOSPITAL, published 2011):
Where two headings read alike, the source gives them in different places.

Tests used:
[1] = molecular target: T1, streptavidin beads (M-280 beads) (UniProt P22629 37-163, limits assumed); assay: radioactive equilibrium binding assay
T1 construct: Capture beads used as negative control

[2] = molecular target: T2, human β-NGF (human, UniProt P01138 122-241, biotinylated (site not stated)); assay: radioactive equilibrium binding assay
T2 construct: also called biotinylated human β-NGF; nerve growth factor
T2 sequence (P01138 122-241 limits assumed): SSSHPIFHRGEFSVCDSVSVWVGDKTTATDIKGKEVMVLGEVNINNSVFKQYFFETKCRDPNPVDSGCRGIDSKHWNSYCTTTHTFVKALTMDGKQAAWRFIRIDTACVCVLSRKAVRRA

[3] = molecular target: T2, human β-NGF; assay: radioactive equilibrium binding assay; remark: listed apart in the source
Experimental: (§1) Affinities of selected F13β2 binders to biotinylated myostatin were determined in radioactive equilibrium binding assay (FIGS. 11A and 11B; Table 3). ³⁵S-labeled binder proteins from selection pools and single clones were produced in vitro in a rabbit reticulocyte lysate translation kit (Ambion) and purified on M2-agarose (Sigma). Varying concentrations of biotinylated human myostatin (0-100 nM) or other proteins (protein 1: 100 nM; peptide 1: 250 nM; protein 2: 50 nM) were incubated with a constant concentration of the purified binder protein (1 or 2 nM) at 30° C. for 30 min in buffer B (1×PBS, 0.02% Triton X-100 [pH 7.4]). The receptor-binder complexes were captured by using 25 μl of M280 or Protein A (Dynal) (protein 2) magnetic beads for 10 min at room temperature on a Kingfisher instrument (Thermo Fisher Scientific). The beads were washed five times with 100 μl buffer B, and the amount of ³⁵S-methionine remained on the beads was measured by scintillation counting. Data were analyzed by using the GraphPad Prism software (GraphPad Software, Inc., San Diego, Calif.), fitted with a one-site, nonlinear binding equation. For inhibition assay the binding of ³⁵S-labeled proteins to 20 or 25 nM of biotinylated human myostatin was performed in the presence of varying concentrations of inhibitor (human activin receptor IIB/Fc chimera (R&D Systems, Minneapolis, Minn.) (0-250 nM); protein 1 (100 nM), peptide 1 (250 nM), protein 2 (50 nM); proteins, produced in E. coli, M17, M7, M29, M21, M1-1, WT F13β2 (500 nM)).
Selected F13β2 binders were tested for binding to biotinylated β-NGF in radioactive equilibrium binding assay (FIGS. 21A and 21B; Table 4) according to the procedure described for myostatin binders. NGF at concentrations up to 100 nM was incubated with a constant concentration of the purified binder protein (1 or 2 nM) at 30° C. for 1 hour. Affinities to human β-NGF differed greatly between various binders.

[4] = molecular target: T3, human myostatin (human, UniProt O14793 267-375, biotinylated in selections and radioactive assays (site not stated)); assay: cell-based or functional assay
T3 sequence (looked up): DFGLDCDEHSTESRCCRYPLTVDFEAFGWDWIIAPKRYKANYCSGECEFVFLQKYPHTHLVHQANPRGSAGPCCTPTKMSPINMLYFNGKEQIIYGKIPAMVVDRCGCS

[5] = molecular target: chicken lysozyme (chicken, UniProt P00698 19-147); assay: phage ELISA on target-coated Maxisorp wells, anti-M13 pVIII-HRP
chicken lysozyme, sequence (P00698 19-147 limits assumed): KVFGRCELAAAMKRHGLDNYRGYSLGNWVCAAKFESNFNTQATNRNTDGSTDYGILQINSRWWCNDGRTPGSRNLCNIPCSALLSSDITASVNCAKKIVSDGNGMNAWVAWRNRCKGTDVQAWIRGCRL
Experimental: (§2) An Elisa screening was performed after four rounds of selection to identify binding clones. Randomly picked phagemid clones were incubated with target-coated or buffer-coated Maxisorp wells at room temperature for 1 hour. Unbound phage was removed and the wells were washed eight times with PBS pH 7.4, 0.05% Tween-20. Binding was determined with an anti-M13 pVIII antibody-HRP conjugate (GE). […] Varying levels of binding to targets and the Maxisorp surface were also observed in other clones.

[6] = molecular target: T4, FcεRI-MBP (UniProt P12319 26-205); assay: as above
T4 construct: Produced in E. coli; order of the two parts is printed both ways (mbp-FcεRI, FcεRI-MBP); also called mbp-FcεRI; mbpFcεRI
T4 sequence (looked up): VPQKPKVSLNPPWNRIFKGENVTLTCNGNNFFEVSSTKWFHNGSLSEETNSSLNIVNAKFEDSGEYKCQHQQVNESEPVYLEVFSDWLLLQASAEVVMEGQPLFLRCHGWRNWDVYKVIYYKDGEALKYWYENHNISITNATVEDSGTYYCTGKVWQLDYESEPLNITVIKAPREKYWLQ
Experimental: as §2

[7] = molecular target: T3, human myostatin; assay: radioactive equilibrium binding assay
[8] = molecular target: T3, human myostatin; assay: radioactive equilibrium binding assay; remark: listed apart in the source
Experimental: as §1

T1 sequence (P22629 37-163 limits assumed): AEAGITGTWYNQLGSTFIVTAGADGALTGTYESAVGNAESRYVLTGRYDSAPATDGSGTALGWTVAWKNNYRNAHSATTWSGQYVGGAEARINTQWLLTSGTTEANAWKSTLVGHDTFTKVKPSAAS

B1: 61362-F2 (designed binder)
chain: MTIPEIIIKVRGTQVVGSDMTVIVEFINTSNETLPSVWVHLDGPGVTRPMKKMFPEIPPNSSVQWEAWVSGHRKLIASMIRDSSRHVYGELDVQIQRRDYKDDDDK
notes: group N2; Δ67-70, P71A
binding result [1]: no binding | Kd [2]: < 100 nM | B max [3]: 35.4% | Kd [3]: 62 nM

B2: M1-1, E. coli-produced (designed binder)
chain: MTIPEIIIKVRGTQVVGSDMTVIVEFTNPLKETLRNVWVHLDGPGVTRPMKKMFPAIPMNHKVQWEEVVRPWVSGHRKLIASMPQLFHIHVYGELDVQIQRRHHHHHH
EC50 (read off the curve); blocking of myostatin-induced inhibition of MPC-11 proliferation [4]: ~20 nM

B3: 61362-B8 (I23L) (designed binder)
chain: MTIPEIIIKVRGTQVVGSDMTVLVEFTIPLQDILNVWVHLDGPGVTRPMKKMFFSIRMTPAVQWEEVVRPWVSGHRKLIASMSFHTHRHVYGELDVQIQRRDYKDDDDK
notes: group N4; I23L
binding result [1]: no binding | Kd [2]: < 100 nM | B max [3]: 2.1% | Kd [3]: 3.8 nM

B4: FG6 phage clone PSPFIEN / RPECI / RGWLRS (designed binder)
chain: TIPEIIIKVRGTQVVGSDMTVIVEFPSPFIENLRNVWVHLDGPGVTRPMKKMFREIRPECIVQWEEVVRPWVSGHRKLIASMSRGWLRSVYGELDVQIQRR
notes: not shown: 6-his, myc tag and C-terminal domain of M13 pIII (phage display fusion)
Target Binding [5]: 1.19

B5: FG6 phage clone INPLQVS / GPSSA / IYRYGL (designed binder)
chain: TIPEIIIKVRGTQVVGSDMTVIVEFINPLQVSLRNVWVHLDGPGVTRPMKKMFREIGPSSAVQWEEVVRPWVSGHRKLIASMSIYRYGLVYGELDVQIQRR
notes: as for B4
Target Binding [5]: 4

B6: FG6+6 phage clone GNPTKET / RPRSM / YRPRRGGMRLRH (designed binder)
chain: TIPEIIIKVRGTQVVGSDMTVIVEFGNPTKETLRNVWVHLDGPGVTRPMKKMFREIRPRSMVQWEEVVRPWVSGHRKLIASMSYRPRRGGMRLRHVYGELDVQIQRR
notes: as for B4
Target Binding [6]: 4

B7: FG6+6 phage clone TNPRRRV / RPRST / WNSRWPAPTRRR (designed binder)
chain: TIPEIIIKVRGTQVVGSDMTVIVEFTNPRRRVLRNVWVHLDGPGVTRPMKKMFREIRPRSTVQWEEVVRPWVSGHRKLIASMSWNSRWPAPTRRRVYGELDVQIQRR
notes: as for B4
Target Binding [6]: 1.73

B8: 61363-H1 (V15A) (designed binder)
chain: MTIPEIIIKVRGTQAVGSDMTVIVEFTNPLKETLYNVWVHLDGPGVTRPMKKMFWEIRTNHPVQWEEVVRPWVSGHRKLIASMSSNSRDHVYGELDVQIQRRDYKDDDDK
notes: group N4; V15A
binding result [1]: no binding | Kd [2]: < 100 nM | B max [3]: 8.4% | Kd [3]: 22.9 nM

B9: FG6+6 phage clone TNPLRGT / PPNVK / GLSTAGRWKRVR (designed binder)
chain: TIPEIIIKVRGTQVVGSDMTVIVEFTNPLRGTLRNVWVHLDGPGVTRPMKKMFREIPPNVKVQWEEVVRPWVSGHRKLIASMSGLSTAGRWKRVRVYGELDVQIQRR
notes: as for B4
Target Binding [6]: 4

B10: 45927-B3 (designed binder)
chain: MTIPEIIIKVRGTQVVGSDMTVIVEFTNPLKETLRNVWVHLDGPGVTRPMKKMFLKIPGCSTVQWEEVVRPWVSGHRKLIASMSMLGLPFSLRFIPVYGELDVQIQRRDYKDDDDK
notes: group M1-Aext; extended FG loop; also called Mext (clone ID)
Kd [7]: 53 to 86 nM | B max [8]: 50.7% | Kd [8]: 86.7 nM

B11: 45927-A3 (designed binder)
chain: MTIPEIIIKVRGTQVVGSDMTVIVEFTNPLKETLRNVWVHLDGPGVTRPMKKMFLKILGCSTVQWEEVVRPWVSGHRKLIASMSMLGLPFSLRFIPVYGELDVQIQRRDYKDDDDK
notes: group M1-Aext
Kd [7]: 53 to 86 nM | B max [8]: 36.4% | Kd [8]: 53.2 nM

B12: FG6 phage clone ANPIKHM / RPTAG / LGVLRR (designed binder)
chain: TIPEIIIKVRGTQVVGSDMTVIVEFANPIKHMLRNVWVHLDGPGVTRPMKKMFREIRPTAGVQWEEVVRPWVSGHRKLIASMSLGVLRRVYGELDVQIQRR
notes: as for B4
Target Binding [5]: 2.83

B13: FG6 phage clone RRPTKGN / GPGQV / LGMLRR (designed binder)
chain: TIPEIIIKVRGTQVVGSDMTVIVEFRRPTKGNLRNVWVHLDGPGVTRPMKKMFREIGPGQVVQWEEVVRPWVSGHRKLIASMSLGMLRRVYGELDVQIQRR
notes: as for B4
Target Binding [5]: 2.45

B14: FG6+6 phage clone SNPLSRP / RPHSN / SRSLWLSIGKRH (designed binder)
chain: TIPEIIIKVRGTQVVGSDMTVIVEFSNPLSRPLRNVWVHLDGPGVTRPMKKMFREIRPHSNVQWEEVVRPWVSGHRKLIASMSSRSLWLSIGKRHVYGELDVQIQRR
notes: as for B4
Target Binding [6]: 3.31

B15: 61363-C12 (G45E) (designed binder)
chain: MTIPEIIIKVRGTQVVGSDMTVIVEFTNPLEENLYNVWVHLDGPEVTRPMKKMFYQISTNIPVQWEEVVRPWVSGHRKLIASMGAHTKDHVYGELDVQIQRRDYKDDDDK
notes: group N4; G45E
binding result [1]: no binding | Kd [2]: < 100 nM | B max [3]: 33.6% | Kd [3]: 36 nM

B16: FG6 phage clone TIPHRGR / QPNVP / RAFLRH (designed binder)
chain: TIPEIIIKVRGTQVVGSDMTVIVEFTIPHRGRLRNVWVHLDGPGVTRPMKKMFREIQPNVPVQWEEVVRPWVSGHRKLIASMSRAFLRHVYGELDVQIQRR
notes: as for B4
Target Binding [5]: 0.34
